The results in this text go back to US20260008864A1.

Assay [1] has as its target CD3 on cells (PBMC, primary patient samples). Nature of the assay: flow cytometry, PBMC treated with C-IgG, dot plot CD38-PE against CD3-V450; reference panel for the treated samples; unstained panel: CD3 0%.
The target is the same in assay [2]. Nature of the assay: flow cytometry on a primary patient sample, control panel: CD3-V450 staining is kept (reference for the bionic panel).

As to non-binding IgG antibody, the CD3 (% of PBMC in the CD3-V450 positive, CD38-PE negative quadrant) in assay [1] amounted to 25%. Besides, the % CD3-V450 stained cells (control panel) in assay [2] turned out to be 25%.
